In the supplement of paper PMC7125110:
± gives the standard error. For some of these results: This sample holds only a part of the variants without activity.

B1: glmS ribozyme (parent)
chain: AUAAAAGCGCCAGAACUACAGAAAUGUAGUUGACGAGGAGGAGGUUUAUCGAAUUUUCGGCGGAUGCCUCCAAA

Columns and labels:
Settings in all cases: with glucosamine-6-phosphate
glucosamine-6-phosphate [1] = variants of: B1; test: kcat; higher = faster cleavage; RNA array
Method in brief: (§1)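 kcat and KM were obtained from weighted Michaelis–Menten fits across concentrations of kobs values. Those came from one- or two-exponential decay fits to per-tile medians normalised to baseline and to non-cleaving reference variants. The variants were barcoded ribozymes transcribed in situ by E. coli RNA polymerase on sequenced MiSeq chips and tracked through a hybridised Cy3 probe at 37 °C, with 40 μM to 10 mM glucosamine-6-phosphate in HEPES/KCl/Mg(OAc)2 buffer flowed in.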

glucosamine-6-phosphate [2] = variants of: B1; test: KM; higher = weaker cofactor use; RNA array
Method in brief: as §1

glucosamine-6-phosphate [3] = variants of: B1; test: self-cleavage kobs at 40 uM GlcN6P; higher = faster cleavage; RNA array
Method in brief: as §1

glucosamine-6-phosphate [4] = variants of: B1; test: self-cleavage kobs at 160 uM GlcN6P; higher = faster cleavage; RNA array
Method in brief: as §1

glucosamine-6-phosphate [5] = variants of: B1; test: self-cleavage kobs at 640 uM GlcN6P; higher = faster cleavage; RNA array
Method in brief: as §1

glucosamine-6-phosphate [6] = variants of: B1; test: self-cleavage kobs at 2500 uM GlcN6P; higher = faster cleavage; RNA array
Method in brief: as §1

glucosamine-6-phosphate [7] = variants of: B1; test: self-cleavage kobs at 10000 uM GlcN6P; higher = faster cleavage; RNA array
Method in brief: as §1

Variant | kcat (glucosamine-6-phosphate [1]) [s⁻¹] | KM (glucosamine-6-phosphate [2]) [µM] | self-cleavage kobs at 40 uM GlcN6P (glucosamine-6-phosphate [3]) [s⁻¹] | self-cleavage kobs at 160 uM GlcN6P (glucosamine-6-phosphate [4]) [s⁻¹] | self-cleavage kobs at 640 uM GlcN6P (glucosamine-6-phosphate [5]) [s⁻¹] | self-cleavage kobs at 2500 uM GlcN6P (glucosamine-6-phosphate [6]) [s⁻¹] | self-cleavage kobs at 10000 uM GlcN6P (glucosamine-6-phosphate [7]) [s⁻¹]
U31G U55C | 0.00961 ± 0.0014 | 1860 ± 410 | 0.000203 ± 4.2e-05 | 0.001 ± 0.00031 | 0.00232 ± 0.00064 | 0.00461 ± 0.0011 | 0.00884 ± 0.0015
U46G A48U | 0.00014 ± 2.4e-05 | – | – | – | 3.53e-05 ± 1.4e-05 | 0.000128 ± 2.5e-05 | 0.000117 ± 1.6e-05
G59C C70G | 1.6e-05 ± 3.6e-06 | – | – | – | – | – | –
G63U C70G | 2.12e-05 ± 4.8e-06 | – | – | – | 2.59e-05 ± 1.1e-05 | 2.19e-05 ± 1e-05 | –
C11U A14G | 0.0102 ± 0.0018 | 2230 ± 580 | 0.000229 ± 4e-05 | 0.000583 ± 0.00013 | 0.00207 ± 0.0003 | 0.00674 ± 0.0012 | 0.00811 ± 0.001
G9A | 3.95e-05 ± 2.5e-06 | 5140 ± 880 | < 1e-05 | < 1e-05 | – | 1.33e-05 ± 3e-06 | 2.61e-05 ± 1.5e-06
G13U C68A | 1.31e-05 ± 2e-06 | – | – | – | – | – | –
A15C U56C | 0.00118 ± 0.00019 | 2470 ± 690 | – | 8.66e-05 ± 1.7e-05 | 0.000202 ± 3.2e-05 | 0.000708 ± 9.2e-05 | 0.000914 ± 9.9e-05
C10A U55G | < 1e-05 | – | – | < 1e-05 | – | – | –
U47G U54G | 0.0073 ± 0.0022 | 724 ± 320 | 0.00053 ± 8.3e-05 | 0.000915 ± 0.00023 | 0.00367 ± 0.00086 | 0.0063 ± 0.0018 | 0.00685 ± 0.0015
C11A C58A | 2e-05 ± 2.2e-07 | 1680 ± 98 | < 1e-05 | < 1e-05 | < 1e-05 | – | –
U65A U69G | 5.5e-05 ± 1.5e-05 | – | – | 7.34e-05 ± 1.9e-05 | 4.35e-05 ± 1.4e-05 | 8.3e-05 ± 1.9e-05 | –
A6C A53U | 8.96e-05 ± 2.4e-06 | 3600 ± 220 | – | – | – | 3.64e-05 ± 7.4e-06 | 6.61e-05 ± 1.1e-05
A36C U54A | < 1e-05 | – | – | < 1e-05 | – | – | –
C11A C70U | 0.000155 ± 1e-05 | 210 ± 71 | 2.69e-05 ± 1e-05 | 6.69e-05 ± 1.4e-05 | 0.00011 ± 1.2e-05 | 0.000168 ± 1.4e-05 | 0.000145 ± 9.7e-06
A14G G32A | 0.0158 ± 0.0015 | 2500 ± 310 | 0.000266 ± 3.1e-05 | 0.000935 ± 0.00013 | 0.00305 ± 0.0005 | 0.00726 ± 0.0011 | 0.0136 ± 0.0018
